Experimental data as given in patent US20140377253A1 (published 2014).

T1: FcγRIIB expressed on cells (UniProt P31994 43-310)
T1 chain: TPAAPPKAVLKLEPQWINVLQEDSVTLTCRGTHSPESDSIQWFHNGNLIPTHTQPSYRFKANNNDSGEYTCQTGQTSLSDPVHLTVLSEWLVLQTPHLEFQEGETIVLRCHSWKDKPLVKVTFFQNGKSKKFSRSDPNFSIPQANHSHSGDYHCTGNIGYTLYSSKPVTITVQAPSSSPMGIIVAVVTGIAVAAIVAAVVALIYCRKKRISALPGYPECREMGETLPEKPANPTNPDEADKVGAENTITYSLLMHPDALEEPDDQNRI


Columns and labels:
[1] = target: T1, FcγRIIB expressed on cells; assay: FACS
[2] = target: FcγRIIIA expressed on cells (UniProt P08637 17-254); assay: FACS
FcγRIIIA expressed on cells, sequence (P08637 17-254): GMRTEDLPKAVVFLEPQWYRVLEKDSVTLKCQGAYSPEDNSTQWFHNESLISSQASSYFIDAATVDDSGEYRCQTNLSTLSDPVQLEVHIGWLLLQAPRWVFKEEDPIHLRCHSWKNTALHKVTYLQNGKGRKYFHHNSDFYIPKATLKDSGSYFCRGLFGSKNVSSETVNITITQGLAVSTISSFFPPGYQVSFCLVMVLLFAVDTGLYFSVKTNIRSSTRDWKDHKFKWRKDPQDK

Binder | EC50 [1] [nM] | EC50 [2] [nM]
V273F (protein) APELLGGPSVFLFPPKPKDTLMISRTPEVTCVVVDVSHEDPEFKFNWYVDGVEVHNAKTKPREEQYNSTYRVVSVLTVLHQDWLNGKEYKCKVSNKALPAPIEKTISKAK | 1.08 | 2.01
V305K (protein) APELLGGPSVFLFPPKPKDTLMISRTPEVTCVVVDVSHEDPEVKFNWYVDGVEVHNAKTKPREEQYNSTYRVVSKLTVLHQDWLNGKEYKCKVSNKALPAPIEKTISKAK | 1.93 | 0.51
V273E (protein) APELLGGPSVFLFPPKPKDTLMISRTPEVTCVVVDVSHEDPEEKFNWYVDGVEVHNAKTKPREEQYNSTYRVVSVLTVLHQDWLNGKEYKCKVSNKALPAPIEKTISKAK | 1.66 | 1.78
V266L (protein) APELLGGPSVFLFPPKPKDTLMISRTPEVTCVVVDLSHEDPEVKFNWYVDGVEVHNAKTKPREEQYNSTYRVVSVLTVLHQDWLNGKEYKCKVSNKALPAPIEKTISKAK | 2.22 | 0.76
V273Y (protein) APELLGGPSVFLFPPKPKDTLMISRTPEVTCVVVDVSHEDPEYKFNWYVDGVEVHNAKTKPREEQYNSTYRVVSVLTVLHQDWLNGKEYKCKVSNKALPAPIEKTISKAK | 1.18 | 3.19

The remaining binders from weak to strong by EC50 [1], led by results:

EC50 [1] [nM] | EC50 [2] [nM] | Binder
2.86 | 0.74 | V305W (protein) APELLGGPSVFLFPPKPKDTLMISRTPEVTCVVVDVSHEDPEVKFNWYVDGVEVHNAKTKPREEQYNSTYRVVSWLTVLHQDWLNGKEYKCKVSNKALPAPIEKTISKAK
2.03 | 1.19 | V273C (protein) APELLGGPSVFLFPPKPKDTLMISRTPEVTCVVVDVSHEDPECKFNWYVDGVEVHNAKTKPREEQYNSTYRVVSVLTVLHQDWLNGKEYKCKVSNKALPAPIEKTISKAK
1.8 | 1.52 | V263L (protein) APELLGGPSVFLFPPKPKDTLMISRTPEVTCVLVDVSHEDPEVKFNWYVDGVEVHNAKTKPREEQYNSTYRVVSVLTVLHQDWLNGKEYKCKVSNKALPAPIEKTISKAK
1.72 | 1.33 | V273S (protein) APELLGGPSVFLFPPKPKDTLMISRTPEVTCVVVDVSHEDPESKFNWYVDGVEVHNAKTKPREEQYNSTYRVVSVLTVLHQDWLNGKEYKCKVSNKALPAPIEKTISKAK
1.66 | 0.69 | V273L (protein) APELLGGPSVFLFPPKPKDTLMISRTPEVTCVVVDVSHEDPELKFNWYVDGVEVHNAKTKPREEQYNSTYRVVSVLTVLHQDWLNGKEYKCKVSNKALPAPIEKTISKAK
1.63 | 1.59 | V273M (protein) APELLGGPSVFLFPPKPKDTLMISRTPEVTCVVVDVSHEDPEMKFNWYVDGVEVHNAKTKPREEQYNSTYRVVSVLTVLHQDWLNGKEYKCKVSNKALPAPIEKTISKAK
